Like-named read-outs stand apart in the source and are kept apart here.
Key:
Experiment in all cases: cryo-EM structure
[1] = biological target: VP5* of S567C-A590C VP4 (foot-locked mutant), on recoated TLPs (rhesus rotavirus (RRV, G3 serotype))
[2] = biological target: VP6 of rhesus rotavirus, in DLPs and TLPs (rhesus rotavirus (RRV, G3 serotype))
[3] = biological target: VP6 of rhesus rotavirus, in DLPs and TLPs (rhesus rotavirus (RRV, G3 serotype)); remark: listed apart in the source
[4] = biological target: VP6 of rhesus rotavirus, in DLPs and TLPs (rhesus rotavirus (RRV, G3 serotype)); remark: listed apart in the source
[5] = biological target: the molecule itself
[6] = biological target: VP5* on native RRV TLPs (rhesus rotavirus (RRV, G3 serotype), UniProt P12473 248-776)
[7] = biological target: the molecule itself; remark: listed apart in the source

## VP5* of S567C-A590C VP4 (foot-locked mutant), on recoated TLPs (domain or fragment)
[1]
  stoichiometry N: 3

## VP6 of rhesus rotavirus, in DLPs and TLPs (natural protein)
[2]
  stoichiometry N: 3
[3]
  stoichiometry N: 3
[4]
  stoichiometry N: 3

B1: VP7 of rhesus rotavirus, recombinant, wild type (natural protein, rhesus rotavirus (RRV, G3 serotype), UniProt P12476 51-326, looked up)
chain: QNYGINLPITGSMDTAYANSTQEETFLTSTLCLYYPTEAATEINDNSWKDTLSQLFLTKGWPTGSVYFKEYTDIASFSVDPQLYCDYNVVLMKYDATLQLDMSELADLILNEWLCNPMDITLYYYQQTDEANKWISMGSSCTIKVCPLNTQTLGIGCLTTDTATFEEVATAEKLVITDVVDGVNHKLDVTTATCTIRNCKKLGPRENVAVIQVGGSDVLDITADPTTAPQTERMMRINWKKWWQVFYTVVDYVNQIIQAMSKRSRSLNSAAFYYRI
[5]
  stoichiometry N: 3

B2: VP7 on native RRV TLPs (natural protein, rhesus rotavirus (RRV, G3 serotype), UniProt P12476 51-326, looked up)
chain: QNYGINLPITGSMDTAYANSTQEETFLTSTLCLYYPTEAATEINDNSWKDTLSQLFLTKGWPTGSVYFKEYTDIASFSVDPQLYCDYNVVLMKYDATLQLDMSELADLILNEWLCNPMDITLYYYQQTDEANKWISMGSSCTIKVCPLNTQTLGIGCLTTDTATFEEVATAEKLVITDVVDGVNHKLDVTTATCTIRNCKKLGPRENVAVIQVGGSDVLDITADPTTAPQTERMMRINWKKWWQVFYTVVDYVNQIIQAMSKRSRSLNSAAFYYRI
[6]
  binding result: binds

B3: VP5* (C-terminal trypsin cleavage fragment of rhesus rotavirus VP4), wild type, on recoated TLPs (domain or fragment, rhesus rotavirus (RRV, G3 serotype), UniProt P12473 248-776, looked up)
chain: AQANEDIVVSKTSLWKEMQYNRDITIRFKFASSIVKSGGLGYKWSEISFKPANYQYTYTRDGEDVTAHTTCSVNGMNDFNFNGGSLPTDFIISRYEVIKENSYVYVDYWDDSQAFRNMVYVRSLAANLNSVICTGGDYSFALPVGQWPVMTGGAVSLHSAGVTLSTQFTDFVSFNSLRFRFRLTVEEPSFSITRTRVGGLYGLPAAYPNNGKEYYEVAGRLSLISLVPSNDDYQTPITNSVTVRQDLERQLGELREEFNALSQEIAMSQLIYLALLPLDMFSMFSGIKSTIDAAKSMATSVMKKFKKSGLANSVSTLTDSLSDAASSISRGASIRSVGSSASAWTDVSTQITDVSSSVSSISTQTSTISRRLRLKEMATQTEGMNFDDISAAVLKTKIDRSTQISPNTLPDIVTEASEKFIPNRAYRVINNDEVFEAGTDGRYFAYRVETFDEIPFDVQKFADLVTDSPVISAIIDFKTLKNLNDNYGISRQQAFNLLRSDPRVLREFINQDNPIIRNRIEQLIMQCRL
[7]
  stoichiometry N: 3

— article PMC8297411 (Nature, 2021)
